Laboratory results published in paper PMC5385928 (Nature structural & molecular biology, 2016).

B1: HIV-1 (NL4-3 clone) Vpr with H78C mutation (natural protein, UniProt P12520 1-96, looked up)
chain: MEQAPEDQGPQREPYNEWTLELLEELKSEAVRHFPRIWLHNLGQHIYETYGDTWAGVEAIIRILQQLLFIHFRIGCRCSRIGVTRQRRARNGASRS
B2: DDB1- and CUL4A-associated factor 1 (DCAF1), C-terminal region including the WD40 domain (residues 1046-1396) (domain or fragment)
chain: not shown

Tests used:
[1] = molecular target: Uracil-DNA glycosylase UNG2, catalytic domain (residues 83-304) (human, UniProt P13051-2 83-304); experiment: crystal structure
Chain of Uracil-DNA glycosylase UNG2, catalytic domain (residues 83-304) (P13051 92-313): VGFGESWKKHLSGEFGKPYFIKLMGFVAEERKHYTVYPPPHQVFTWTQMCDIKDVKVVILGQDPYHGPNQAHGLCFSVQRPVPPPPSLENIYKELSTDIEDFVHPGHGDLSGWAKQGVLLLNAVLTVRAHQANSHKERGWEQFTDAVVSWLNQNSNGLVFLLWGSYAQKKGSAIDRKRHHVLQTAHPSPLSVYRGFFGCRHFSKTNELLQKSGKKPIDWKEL

[2] = molecular target: DNA damage-binding protein 1 (DDB1), full length human (human, UniProt Q16531 1-1140); experiment: crystal structure
Chain of DNA damage-binding protein 1 (DDB1), full length human (Q16531 whole entry): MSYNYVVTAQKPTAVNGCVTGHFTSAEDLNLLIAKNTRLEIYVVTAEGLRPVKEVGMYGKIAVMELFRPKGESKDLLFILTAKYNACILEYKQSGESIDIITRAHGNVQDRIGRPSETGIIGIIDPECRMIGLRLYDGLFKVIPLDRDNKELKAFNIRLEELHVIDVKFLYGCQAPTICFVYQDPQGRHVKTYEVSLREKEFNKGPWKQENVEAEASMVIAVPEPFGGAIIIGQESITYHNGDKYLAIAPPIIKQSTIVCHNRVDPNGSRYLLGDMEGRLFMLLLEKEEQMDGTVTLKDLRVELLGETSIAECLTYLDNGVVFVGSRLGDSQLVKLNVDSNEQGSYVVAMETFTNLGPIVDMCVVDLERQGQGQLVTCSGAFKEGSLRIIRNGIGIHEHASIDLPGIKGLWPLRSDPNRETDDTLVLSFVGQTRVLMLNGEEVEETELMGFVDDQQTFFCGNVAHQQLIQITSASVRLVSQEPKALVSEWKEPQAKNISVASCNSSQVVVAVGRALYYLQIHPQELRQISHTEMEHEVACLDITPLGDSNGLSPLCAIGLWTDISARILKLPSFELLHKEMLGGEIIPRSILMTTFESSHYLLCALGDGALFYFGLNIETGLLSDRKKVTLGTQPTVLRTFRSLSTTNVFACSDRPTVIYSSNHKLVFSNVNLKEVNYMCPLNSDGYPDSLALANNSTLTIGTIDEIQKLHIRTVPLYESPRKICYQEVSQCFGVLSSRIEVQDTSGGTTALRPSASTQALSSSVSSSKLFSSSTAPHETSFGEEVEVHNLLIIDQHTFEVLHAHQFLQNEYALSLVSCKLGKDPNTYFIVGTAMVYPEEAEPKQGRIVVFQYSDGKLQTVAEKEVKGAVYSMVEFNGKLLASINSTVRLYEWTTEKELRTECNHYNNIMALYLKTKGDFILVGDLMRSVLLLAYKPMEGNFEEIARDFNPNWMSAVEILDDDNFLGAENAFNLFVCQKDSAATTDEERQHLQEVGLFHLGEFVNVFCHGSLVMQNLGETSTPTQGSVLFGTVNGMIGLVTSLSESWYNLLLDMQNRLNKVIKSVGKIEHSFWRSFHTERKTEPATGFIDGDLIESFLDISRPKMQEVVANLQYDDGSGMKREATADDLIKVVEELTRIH

Row | Binder | binding result [1] | binding result [2]
1 | B1 | binds | 
2 | B2 |  | binds
